Data from US20090286252A1 (NEW YORK UNIVERSITY, published 2009).

What was measured:
[1] = target: full length cTRα (chicken) (UniProt P04625); assay: cell-based or functional assay
LexA-hRARα LBD = target: T1, LexA-hRARα LBD (human, UniProt P0A7C2 1-202; P10276 154-462, limits assumed); assay: yeast two-hybrid (data not shown)
T1 construct: also called LexA-RAR
T1 sequence (looked up): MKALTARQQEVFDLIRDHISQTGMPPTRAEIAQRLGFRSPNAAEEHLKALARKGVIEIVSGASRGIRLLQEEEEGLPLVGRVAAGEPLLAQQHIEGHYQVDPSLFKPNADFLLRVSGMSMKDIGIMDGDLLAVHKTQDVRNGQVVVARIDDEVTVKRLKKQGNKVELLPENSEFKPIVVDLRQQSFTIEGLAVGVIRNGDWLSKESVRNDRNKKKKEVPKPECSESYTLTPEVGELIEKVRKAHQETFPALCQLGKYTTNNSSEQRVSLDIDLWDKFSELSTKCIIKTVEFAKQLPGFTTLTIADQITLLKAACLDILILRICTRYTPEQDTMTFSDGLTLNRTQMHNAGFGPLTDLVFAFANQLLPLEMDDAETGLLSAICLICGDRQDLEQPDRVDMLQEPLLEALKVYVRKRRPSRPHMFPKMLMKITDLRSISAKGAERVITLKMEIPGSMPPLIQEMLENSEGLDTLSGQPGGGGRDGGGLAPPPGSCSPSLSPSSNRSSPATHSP
Description: (§1) The following receptor baits were used: LexA-cTRα LBD, LexA-hTRβ LBD, LexA-hRARα LBD, LexA-hRXRα LBD, and LexA-hGR LBD. […] Yeast cells harboring appropriate plasmids were grown in selective media with Gal/Raf in the presence or absence of cognate ligand (1 μM T3 for TR, all trans or 9-cis RA for RAR, 9-cis RA for RXR, and 10 μM deoxycorticosterone for GR) overnight before β-galactosidase activity was assayed using o-Nitrophenyl β-D-Galactopyranoside as the substrate. β-galactosidase units are expressed as (O.D. 420 nm×1000)/(minutes of incubation×O.D. 600 nm of yeast suspension).

LexA-hGR LBD = target: T2, LexA-hGR LBD (human, UniProt P0A7C2 1-202; P04150 485-777, limits assumed); assay: yeast two-hybrid (data not shown)
T2 construct: also called LexA-GR
T2 sequence (looked up): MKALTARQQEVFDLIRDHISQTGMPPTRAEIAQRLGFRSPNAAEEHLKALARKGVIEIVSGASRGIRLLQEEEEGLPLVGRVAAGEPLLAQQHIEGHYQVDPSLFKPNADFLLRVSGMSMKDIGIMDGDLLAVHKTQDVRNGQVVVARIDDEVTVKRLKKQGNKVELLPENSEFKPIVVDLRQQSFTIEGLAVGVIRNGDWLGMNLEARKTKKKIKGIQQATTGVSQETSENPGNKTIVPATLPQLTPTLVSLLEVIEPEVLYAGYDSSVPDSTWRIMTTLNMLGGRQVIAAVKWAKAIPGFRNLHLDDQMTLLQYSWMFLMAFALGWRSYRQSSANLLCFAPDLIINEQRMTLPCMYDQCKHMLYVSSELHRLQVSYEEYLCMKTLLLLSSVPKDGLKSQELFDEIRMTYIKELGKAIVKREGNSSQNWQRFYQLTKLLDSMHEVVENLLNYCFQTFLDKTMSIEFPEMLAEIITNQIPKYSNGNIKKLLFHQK
Description: as §1

LexA-cTRα LBD = target: T3, LexA-cTRα LBD (chicken, UniProt P0A7C2 1-202; P04625 120-408, limits assumed); assay: yeast two-hybrid, β-galactosidase (FIG. 8B)
T3 construct: also called LexA-TR LBD; LexA-TR
T3 sequence (looked up): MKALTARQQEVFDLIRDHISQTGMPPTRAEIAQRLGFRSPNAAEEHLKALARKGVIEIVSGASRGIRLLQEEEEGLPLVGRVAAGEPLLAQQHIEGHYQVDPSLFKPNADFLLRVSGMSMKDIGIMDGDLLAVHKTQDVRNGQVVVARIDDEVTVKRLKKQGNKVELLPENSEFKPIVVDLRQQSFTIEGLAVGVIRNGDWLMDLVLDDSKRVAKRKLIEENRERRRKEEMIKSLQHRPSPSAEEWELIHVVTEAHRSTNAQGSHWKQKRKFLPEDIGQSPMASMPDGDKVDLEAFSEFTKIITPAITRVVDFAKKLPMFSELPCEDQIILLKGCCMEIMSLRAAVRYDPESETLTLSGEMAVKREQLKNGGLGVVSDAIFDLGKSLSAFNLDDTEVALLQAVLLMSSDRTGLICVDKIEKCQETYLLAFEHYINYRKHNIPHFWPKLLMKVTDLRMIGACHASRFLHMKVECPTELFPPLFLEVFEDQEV
Description: as §1

LexA-hRXRα LBD = target: T4, LexA-hRXRα LBD (human, UniProt P0A7C2 1-202; P19793 198-462, limits assumed); assay: yeast two-hybrid, β-galactosidase (FIG. 8B)
T4 construct: also called LexA-RXR
T4 sequence (looked up): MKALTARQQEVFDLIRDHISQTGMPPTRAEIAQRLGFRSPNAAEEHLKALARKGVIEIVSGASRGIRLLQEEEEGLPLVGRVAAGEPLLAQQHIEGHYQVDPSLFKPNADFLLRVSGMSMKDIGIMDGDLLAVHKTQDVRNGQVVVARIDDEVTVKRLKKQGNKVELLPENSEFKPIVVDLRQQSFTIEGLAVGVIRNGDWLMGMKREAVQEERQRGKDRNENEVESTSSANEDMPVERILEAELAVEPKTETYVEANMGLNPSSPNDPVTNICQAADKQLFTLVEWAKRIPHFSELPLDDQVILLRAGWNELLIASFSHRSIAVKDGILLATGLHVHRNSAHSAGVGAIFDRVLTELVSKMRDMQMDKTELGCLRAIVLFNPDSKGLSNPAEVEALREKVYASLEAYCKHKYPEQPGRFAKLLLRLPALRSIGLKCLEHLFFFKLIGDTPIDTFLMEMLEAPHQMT
Description: as §1

B42-cTRα LBD = target: T5, B42-cTRα LBD (chicken, UniProt P04625 120-408); assay: yeast two-hybrid (data not shown)
T5 construct: also called B42-TR LBD; LBD of TR (fused with B-42)
T5 sequence (looked up): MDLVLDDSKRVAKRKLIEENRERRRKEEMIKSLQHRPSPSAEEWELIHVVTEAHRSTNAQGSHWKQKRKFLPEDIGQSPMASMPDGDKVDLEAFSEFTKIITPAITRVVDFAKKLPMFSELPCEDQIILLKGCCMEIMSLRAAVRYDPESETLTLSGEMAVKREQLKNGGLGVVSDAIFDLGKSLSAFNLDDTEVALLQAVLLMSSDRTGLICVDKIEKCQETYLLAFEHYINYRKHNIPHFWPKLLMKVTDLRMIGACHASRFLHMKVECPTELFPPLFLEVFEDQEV
Description: as §1

B42-hRARα LBD = target: T6, B42-hRARα LBD (human, UniProt P10276 154-462); assay: yeast two-hybrid (data not shown)
T6 construct: also called B42-RAR LBD; LBD of RAR
T6 sequence (looked up): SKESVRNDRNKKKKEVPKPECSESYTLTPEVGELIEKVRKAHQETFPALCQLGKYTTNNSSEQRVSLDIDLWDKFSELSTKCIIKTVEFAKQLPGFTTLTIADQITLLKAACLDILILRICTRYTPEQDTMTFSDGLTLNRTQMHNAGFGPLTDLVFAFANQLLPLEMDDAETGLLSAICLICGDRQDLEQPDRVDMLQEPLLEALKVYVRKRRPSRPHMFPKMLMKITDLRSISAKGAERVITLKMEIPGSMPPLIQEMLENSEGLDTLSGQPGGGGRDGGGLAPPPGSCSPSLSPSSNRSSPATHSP
Description: as §1

B42-hRXRα LBD = target: T7, B42-hRXRα LBD (human, UniProt P19793 198-462); assay: yeast two-hybrid (data not shown)
T7 construct: also called B42-RXR LBD; LBD of RXR (fused with B-42)
T7 sequence (looked up): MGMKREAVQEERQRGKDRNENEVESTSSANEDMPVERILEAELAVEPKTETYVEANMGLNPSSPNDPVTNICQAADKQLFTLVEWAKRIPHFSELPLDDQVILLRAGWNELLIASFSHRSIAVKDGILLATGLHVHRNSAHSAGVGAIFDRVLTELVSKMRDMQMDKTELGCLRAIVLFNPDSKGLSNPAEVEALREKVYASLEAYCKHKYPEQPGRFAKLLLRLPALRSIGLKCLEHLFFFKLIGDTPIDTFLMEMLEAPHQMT
Description: as §1

“NRIF3 (full length) (from UniProt Q13352 1-177)” showed an enhancement of TR-mediated activation of the GH-TRE-tk-CAT reporter in HeLa cells (FIG. 5B) [1] of 3.5 fold and an enhancement of TR-mediated activation of the IR-ΔMTV-CAT reporter in HeLa cells (FIG. 5A) [1] of 2.5 to 3 fold.

B1: β3-endonexin short form (EnS) expressed from pJG4-5 (other, not shown: large carriers)
chain: MPVKRSLKLDGLLEENSFDPSKITRKKSVITYSPTTGTCQMSLFASPTSSEEQKHRNGLSNEKRKKLNHPSLTESKESTTKDNDEFMMLLSKVEKLSEEIMEIMQNLSSIQ
notes: Yeast two-hybrid prey; also called pJG4-5/EnS
B1: no binding (LexA-hRARα LBD); no binding (LexA-hGR LBD); no binding (LexA-cTRα LBD). B1: no binding (LexA-hRXRα LBD).

B2: LexA alone (other, UniProt P0A7C2 1-202, looked up)
chain: MKALTARQQEVFDLIRDHISQTGMPPTRAEIAQRLGFRSPNAAEEHLKALARKGVIEIVSGASRGIRLLQEEEEGLPLVGRVAAGEPLLAQQHIEGHYQVDPSLFKPNADFLLRVSGMSMKDIGIMDGDLLAVHKTQDVRNGQVVVARIDDEVTVKRLKKQGNKVELLPENSEFKPIVVDLRQQSFTIEGLAVGVIRNGDWL
notes: Negative control bait; also called bait LexA alone (negative control)
B2: no binding (B42-cTRα LBD); no binding (B42-hRARα LBD); no binding (B42-hRXRα LBD).
